Data published in patent JP2021530247A.

How the values were obtained:
[1] = biological target: 10ng/mLのタンパク質サンプル (rBcl-2; R&D Systems or in-house, not stated) (UniProt P10415); test: sandwich ELISA with the commercial reagents (taken as Bcl-2/100 capture, 4D7-biotin detector), 10 ng/mL protein
[2] = biological target: Bcl-2を発現しているライセート (UniProt P10415); test: sandwich ELISA with the commercial reagents (taken as Bcl-2/100 capture, 4D7-biotin detector), lysate

Question: With mAb Bcl-2/100 (antibody) as the substance, how does the OD [1] read?
Answer: The OD was 0.67 OD.

Question: What about the OD [2] of the same substance?
Answer: Its OD is 0.24 OD.
